In the supplement of paper PMC9112550, “Optimization of the antimicrobial peptide Bac7 by deep mutational scanning” (BMC Biology, 2022):

Test system: Escherichia coli TOP10
Assay: shrunken log2 fold change of peptide-encoding DNA abundance (4.5 h post-induction vs induction); higher = less antimicrobial activity (less host growth inhibition)
Conditions: time post-induction: 4.5 h; library: site-saturation at positions 5, 18, 19, 20
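Note: peptides expressed intracellularly from a pBAD plasmid library in pooled LB shake-flask culture, induced with 0.3% L-arabinose, DNA abundance read by NGS, three biological replicates, DESeq2 with apeglm shrinkage.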

Sequence | shrunken log2 fold change
RRIRARPPRLPRPRPRPACYPRP | 0.489
RRIRARPPRLPRPRPRPADAPRP | 0.473
RRIRARPPRLPRPRPRPADDPRP | 0.409
RRIRARPPRLPRPRPRPADNPRP | 0.383
RRIRARPPRLPRPRPRPAENPRP | 0.865
RRIRARPPRLPRPRPRPAEQPRP | 0.728
RRIRARPPRLPRPRPRPAETPRP | 0.398
RRIRARPPRLPRPRPRPAFHPRP | -0.115
RRIRARPPRLPRPRPRPAFPPRP | 0.532
RRIRARPPRLPRPRPRPAHYPRP | 0.095
RRIRARPPRLPRPRPRPAIAPRP | 0.547
RRIRARPPRLPRPRPRPALNPRP | 0.431
RRIRARPPRLPRPRPRPALPPRP | 0.309
RRIRARPPRLPRPRPRPAMQPRP | 0.723
RRIRARPPRLPRPRPRPANLPRP | 0.177
RRIRARPPRLPRPRPRPANVPRP | -0.0645
RRIRARPPRLPRPRPRPANWPRP | 0.215
RRIRARPPRLPRPRPRPANYPRP | -0.122
RRIRARPPRLPRPRPRPAPEPRP | 0.777
RRIRARPPRLPRPRPRPAPMPRP | 0.799
RRIRARPPRLPRPRPRPAPPPRP | 1.27
RRIRARPPRLPRPRPRPAQAPRP | 0.939
RRIRARPPRLPRPRPRPAQEPRP | 0.582
RRIRARPPRLPRPRPRPARNPRP | 0.364
RRIRARPPRLPRPRPRPASRPRP | 0.44
RRIRARPPRLPRPRPRPASWPRP | 0.537
RRIRARPPRLPRPRPRPATKPRP | 0.531

Sequence | shrunken log2 fold change
RRIRARPPRLPRPRPRPAVLPRP | 0.549
RRIRARPPRLPRPRPRPAVQPRP | -0.0122
RRIRARPPRLPRPRPRPAVRPRP | 0.545
RRIRARPPRLPRPRPRPAYMPRP | -0.64
RRIRARPPRLPRPRPRPCARPRP | 0.786
RRIRARPPRLPRPRPRPCCHPRP | -0.454
RRIRARPPRLPRPRPRPCDFPRP | -0.128
RRIRARPPRLPRPRPRPCDYPRP | -0.295
RRIRARPPRLPRPRPRPCEHPRP | 0.0977
RRIRARPPRLPRPRPRPCFAPRP | 0.61
RRIRARPPRLPRPRPRPCFHPRP | -0.0446
RRIRARPPRLPRPRPRPCFNPRP | 0.0639
RRIRARPPRLPRPRPRPCFSPRP | -0.137
RRIRARPPRLPRPRPRPCFVPRP | -0.0979
RRIRARPPRLPRPRPRPCGCPRP | 0.807
RRIRARPPRLPRPRPRPCGKPRP | 0.659
RRIRARPPRLPRPRPRPCGLPRP | -0.0341
RRIRARPPRLPRPRPRPCGMPRP | 0.0551
RRIRARPPRLPRPRPRPCHLPRP | -0.171
RRIRARPPRLPRPRPRPCIDPRP | 0.306
RRIRARPPRLPRPRPRPCIVPRP | -0.233
RRIRARPPRLPRPRPRPCKTPRP | 0.107
RRIRARPPRLPRPRPRPCLLPRP | 0.0509
RRIRARPPRLPRPRPRPCLYPRP | 0.137
RRIRARPPRLPRPRPRPCMMPRP | -0.0864
RRIRARPPRLPRPRPRPCMTPRP | 0.591
RRIRARPPRLPRPRPRPCNKPRP | -0.43
